Holding throughout (assay): intrinsic tryptophan fluorescence titration; no ATP; Fluorescence titration (ex 295 nm, em 340 nm), one-site saturation fit; buffer, salt, pH and temperature not given in the material. Wild-type ADAAD Kd values are cited from ref 24 and not listed
Holding throughout (conditions): protein: recombinant; tags: His (Ni-NTA, pET-14b); hairpin

The target in one series is T1, ADAAD F507A (Bos taurus (bovine), UniProt Q9TTA5 221-940, F727A).
T1 sequence: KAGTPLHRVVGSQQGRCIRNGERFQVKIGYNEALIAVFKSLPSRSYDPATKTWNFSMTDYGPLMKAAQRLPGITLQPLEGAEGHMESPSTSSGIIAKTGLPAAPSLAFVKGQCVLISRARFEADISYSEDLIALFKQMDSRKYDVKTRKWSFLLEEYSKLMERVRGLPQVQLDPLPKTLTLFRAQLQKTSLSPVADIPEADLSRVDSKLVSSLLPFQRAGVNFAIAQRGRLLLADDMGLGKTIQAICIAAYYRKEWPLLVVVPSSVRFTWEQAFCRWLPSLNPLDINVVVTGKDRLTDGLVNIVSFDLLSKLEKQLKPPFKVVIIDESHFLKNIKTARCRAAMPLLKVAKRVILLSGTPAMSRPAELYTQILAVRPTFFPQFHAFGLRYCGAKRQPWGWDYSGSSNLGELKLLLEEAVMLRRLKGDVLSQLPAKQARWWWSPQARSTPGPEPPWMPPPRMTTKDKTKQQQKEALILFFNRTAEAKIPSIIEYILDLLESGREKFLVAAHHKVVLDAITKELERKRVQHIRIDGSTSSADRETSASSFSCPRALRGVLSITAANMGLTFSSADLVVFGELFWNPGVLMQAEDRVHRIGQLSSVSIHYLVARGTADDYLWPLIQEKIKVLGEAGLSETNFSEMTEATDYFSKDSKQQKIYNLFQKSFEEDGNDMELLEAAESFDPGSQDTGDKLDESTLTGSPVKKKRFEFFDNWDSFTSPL

A further series addresses T2, ADAAD R595A (Bos taurus (bovine), UniProt Q9TTA5 221-940, R815A).
T2 sequence: T1 sequence with A507F, R595A

Another series concerns the target T3, ADAAD T560A (Bos taurus (bovine), UniProt Q9TTA5 221-940, T780A).
T3 sequence: T1 sequence with A507F, T560A

Where a chain is given by its changes, count along the chain named.

As for GCGCAATTGCGCTCGACGATTTTTTAGCGCAATTGCGC (structured_DNA) [slDNA (stem-loop DNA)], the figures for the Kd in the series with ADAAD F507A, with ADAAD R595A and with ADAAD T560A were 19 ± 4.5 nM, 24 ± 0.6 nM and 6.8 ± 0.6 nM, respectively.

The values above are taken from PMC6019379, “RecA-like domain 2 of DNA-dependent ATPase A domain, a SWI2/SNF2 protein, mediates conformational integrity and ATP hydrolysis” (Bioscience Reports, 2018).
